Assay results as given in publication PMC7354611.

Biological target: Bacillus cereus MazF (mRNA interferase BC0266) (Bacillus cereus)
Assay: SEC; Superdex 75 10/300 GL column, with reference proteins of the Gel Filtration Calibration Kits (GE Healthcare); His-tagged MazF eluted at almost the same time as carbonic anhydrase (29 kDa)

**Q.** Which stoichiometry N does the source give for “Bacillus cereus MazF (mRNA interferase BC0266) (natural protein)” here?
**A.** 2
